Target: T1, recombinant protein comprising the whole extracellular part of IL1RI (UniProt P14778 18-336)
T1 chain: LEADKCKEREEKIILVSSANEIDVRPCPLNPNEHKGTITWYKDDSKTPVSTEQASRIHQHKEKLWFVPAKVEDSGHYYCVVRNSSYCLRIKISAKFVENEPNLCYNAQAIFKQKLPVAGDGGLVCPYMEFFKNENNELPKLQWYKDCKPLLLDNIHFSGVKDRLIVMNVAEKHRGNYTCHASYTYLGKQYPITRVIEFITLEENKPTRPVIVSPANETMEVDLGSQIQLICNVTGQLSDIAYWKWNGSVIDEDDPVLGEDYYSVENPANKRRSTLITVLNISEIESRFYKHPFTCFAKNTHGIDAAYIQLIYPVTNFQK
Assay: SPR

Kd: 171 nM
Binder: SGRKSSKMQA [Ilantafin peptide (SEQ ID NO:1), SGRKSSKMQA]

— patent US20140073556A1 (published 2014)
